# B1: HDV Ribozyme (parent)
# chain: GGCCGGCAUGGUCCCAGCCUCCUCGCUGGCGCCGGCUGGGCAACAUUCCGAGGGGACCGUCCCCUCGGUAAUGGCGAAUGGGACCCA
# Variants of: B1
# Test: self-cleavage, relative activity (ratio to wild type); higher = more cleavage; co-transcriptional
row,Variant,self-cleavage
1,G28U A43C,0.0755
2,G28U A43G,0.131
3,G28C G59U,0.0678
4,G28C G59A,0.185
5,G28U C64A,0.125
6,G28A C36G,0.0519
7,G28A C85A,0.0369
8,G28A C85G,0.0332
9,G28C C85A,0.0475
10,G28A U46A,0.0326
11,G28A U46C,0.0594
12,G28U C41U,0.0779
13,G28U G34U,0.117
14,G28U G34C,0.101
15,G28C C32A,0.154
16,G28C C32G,0
17,G28A G54A,0.0811
18,G28A G54U,0.0733
19,G28A G67U,0.0536
20,G28A C63A,0.128
21,G28A C63G,0.148
22,U27G G38A,0.128
23,G28C A71G,0.222
24,U27G C44U,0.688

row,Variant,self-cleavage
1,U27G C44A,0.475
2,U27G U47G,1.27
3,U27G U47A,0.697
4,G28C U72G,0.138
5,G28C U72C,0
6,G28A G73U,0.0326
7,G28A G73C,0.0256
8,U27G C66A,0.532
9,U27G C66U,1.02
10,G28A U60G,0.0386
11,G28A U60A,0.178
12,G28A U60C,0.0811
13,U27G U72G,0.978
14,G28U C61G,0.0678
15,G28A A45U,0.128
16,G28C A78C,0.0852
17,G28C G53U,0.123
18,G28C G53C,0
19,G28C G53A,0.0941
20,G28A C32A,0.234
21,G28A C32G,0
22,G28U C57U,0.208
23,G28U C57A,0.102
24,G28C C63U,0.0369

row,Variant,self-cleavage
1,G28U C75A,0.0755
2,G28C A56G,0.107
3,G28C A56U,0.138
4,G28U G55A,0.0712
5,G28U G55U,0.185
6,G28C U60C,0.0852
7,G28A G29U,0.111
8,G28A G29C,0.0519
9,G28A G29A,0.0978
10,G28U C66A,0.197
11,G28U C66G,0.277
12,G28U A70U,0
13,G28U G53C,0.0692
14,G28U G53U,0.124
15,G28U G53A,0.0801
16,G28C G82A,0.0852
17,G28C G82U,0.102
18,U27G A78C,0.499
19,U27G A78G,0.532
20,G28A C49A,0.111
21,G28A C49U,0.0683
22,G28A A87C,0.0676
23,G28C G80A,0.193
24,G28U C33U,0.117

row,Variant,self-cleavage
1,G28U C33A,0.124
2,U27G G73U,0.0723
3,U27G G73A,0.396
4,G28U A56G,0
5,G28U A56U,0.0941
6,G28U U65G,0.128
7,G28U U65C,0.0707
8,U27G G59U,1.03
9,U27G G59C,1.03
10,U27G G59A,0.855
11,G28A A77U,0.104
12,G28U U60A,0.17
13,G28U U60C,0.0755
14,G28U C84U,0.0489
15,G28U C84A,0.0594
16,G28U G38C,0.0665
17,G28U G38A,0.0863
18,G28A U37C,0.151
19,G28A A56G,0.135
20,G28C A83C,0
21,G28C A83G,0.0542
22,G28C A83U,0.0437
23,G28C G52C,0.229
24,G28C G52U,0.0831

row,Variant,self-cleavage
1,G28C G34U,0.0386
2,G28C G34C,0.156
3,U27G U60C,0.804
4,U27G U60A,0.914
5,G28A G81C,0.0674
6,G28A G81U,0.0287
7,G28U C58G,0.0852
8,G28U C48A,0.125
9,G28U C48U,0.0361
10,G28U C30U,0
11,G28U C30A,0.0923
12,G28U C30G,0.0886
13,G28A G80U,0.0989
14,G28A C44U,0.215
15,G28U A42U,0.138
16,G28U A42C,0.0415
17,G28A U79G,0.0489
18,G28U G67A,0.164
19,G28U G67C,0.0545
20,G28U U46C,0
21,G28U U46G,0
22,G28A A70G,0.032
23,U27G G54A,0.578
24,U27G G54U,0.997

row,Variant,self-cleavage
1,U27G G82A,0.534
2,G28A A78U,0.0308
3,G28A A78C,0.0378
4,G28A A78G,0.185
5,U27G C86U,1.15
6,U27G C86A,0.767
7,G28U G74U,0.0639
8,G28U G74A,0.0528
9,G28U G74C,0.0992
10,G28C C36G,0.0773
11,U27G C49G,0.665
12,G28C A42G,0
13,G28C A42U,0.166
14,G28U G35U,0.0936
15,U27G C33A,0.185
16,U27G C33U,0.935
17,G28C C66G,0.13
18,G28A A42G,0.369
19,U27G C57A,1.22
20,U27G C57G,0.895
21,U27G C57U,0.987
22,G28U C85U,0.0639
23,G28U C85G,0.108
24,G28A C86A,0.0256

row,Variant,self-cleavage
1,G28A G40A,0.0615
2,G28A C84G,0.0378
3,G28C C49U,0.111
4,G28U A83U,0.0415
5,U27G G39A,0.196
6,G28C G40C,0.113
7,G28C C44G,0
8,G28A U69G,0
9,U27G C48G,0.923
10,G28A C57U,0.163
11,G28A C57A,0.0978
12,G28A C57G,0
13,G28U U47A,0.111
14,G28U U47G,0.095
15,G28C A87U,0.0455
16,G28C A87C,0.0987
17,G28C A87G,0.125
18,U27G A83U,0.791
19,U27G A83G,0.755
20,G28C C86A,0.0583
21,G28C C86G,0.0692
22,G28C U79C,0.155
23,G28C U79A,0
24,G28C C62U,0.0369

row,Variant,self-cleavage
1,G28C G76C,0.136
2,G28A G38U,0.0496
3,G28U C63U,0.12
4,G28C A45G,0.0811
5,G28C A45C,0.0594
6,G28C U47G,0.0536
7,G28C U47A,0.0536
8,G28C U47C,0.0665
9,U27G U46A,0.332
10,U27G U46C,0.997
11,U27G C58G,0.95
12,U27G C58A,0.516
13,G28U A78C,0.0923
14,G28U G31C,0.189
15,G28C U46G,0.0755
16,G28C U46C,0.0723
17,G28A C58A,0.0639
18,G28A C58U,0.0228
19,G28C G29U,0
20,U27G C36A,0.0639
21,U27G C36U,0.322
22,G28A C61U,0.0631
23,G28A C62G,0.111
24,G28A C62A,0.0297

row,Variant,self-cleavage
1,G28U A45G,0.208
2,G28C G35U,0.0997
3,G28C G35A,0.0326
4,G28C G35C,0.0554
5,U27G G74C,0.302
6,G28U G73A,0
7,G28U G73C,0
8,U27G G28C,0.554
9,U27G G28A,0.499
10,U27G G28U,0.612
11,U27G C64G,0.87
12,U27G G76C,1.14
13,U27G G76A,0.98
14,U27G G76U,0.855
15,G28C A43U,0.111
16,U27G G67A,1.1
17,G28U G76C,0.242
18,G28U G76A,0.142
19,G28U G76U,0.187
20,G28U G82U,0.0468
21,G28U G29C,0.106
22,G28C C48U,0.0978
23,U27G A87U,0.763
24,U27G A87G,0.774

row,Variant,self-cleavage
1,G28U C32G,0.133
2,G28C C75A,0.113
3,G28C C75U,0.0361
4,U27G G80C,0.213
5,U27G G80U,0.224
6,G28A G34U,0.0277
7,G28U C44G,0.111
8,G28U C44U,0.0297
9,G28U C44A,0
10,G28C G55U,0.196
11,G28C G55A,0.18
12,G28U G54A,0.115
13,G28U G54U,0.0712
14,G28U G54C,0.234
15,U27G G55U,1
16,G28C C64A,0.104
17,G28C C64U,0.198
18,U27G U65G,0.95
19,U27G U65A,1.03
20,U27G U65C,0.965
21,U27G C30A,0.458
22,G28U C86G,0.217
23,G28C G81C,0.0875
24,G28U G68C,0.0733

row,Variant,self-cleavage
1,U27G C32U,0.831
2,U27G C32A,0.185
3,U27G C32G,0
4,U27G G50A,0.923
5,G28U G59A,0.0936
6,G28A G52A,0.0764
7,G28A G52U,0.0475
8,U27G C75U,0.138
9,G28C C57A,0
10,G28C C57G,0.115
11,U27G G35C,0.0594
12,U27G G35A,0.295
13,U27G G35U,0.277
14,G28U A87C,0.113
15,G28U G50U,0.163
16,G28U G50C,0.212
17,U27G G52C,1.02
18,G28U U37C,0.141
19,G28U U37G,0.18
20,G28C G39C,0
21,G28C G39A,0.0744
22,U27G G31U,0.293
23,U27G G31C,0.344
24,G28A C41U,0.0875

row,Variant,self-cleavage
1,G28A C41A,0.13
2,U27G U79C,0.308
3,G28U C36U,0
4,G28U C36G,0.0665
5,G28U C36A,0.0898
6,G28C C84U,0.0396
7,G28C G73U,0.154
8,G28C G73C,0.148
9,G28A G55A,0.153
10,G28A G55C,0.0252
11,G28A G76U,0.0923
12,G28A G76A,0.0563
13,U27G U37C,0.762
14,U27G G81C,0.277
15,G28A A51C,0
16,G28A A51G,0.0326
17,U27G C62A,1.09
18,U27G C62U,1.02
19,U27G C62G,1.14
20,G28C C33U,0.232
21,G28C C33A,0.106
22,G28C A70C,0.104
23,G28C A70U,0.101
24,G28C A70G,0

row,Variant,self-cleavage
1,G28U G39A,0.0256
2,G28U G39C,0.125
3,U27G G40C,0.0639
4,U27G G40U,0.293
5,U27G G40A,0.889
6,G28C G54A,0.0639
7,G28A G82U,0.138
8,G28U G80C,0.0639
9,U27G G68U,0.858
10,U27G G68A,0.858
11,U27G C85G,1.29
12,U27G C85A,0.831
13,U27G C85U,0.807
14,G28A U47G,0.268
15,G28A U47A,0
16,G28A C66U,0.138
17,G28U C62U,0.205
18,G28U C62A,0.154
19,G28A G59C,0.086
20,G28A G59U,0.117
21,G28U A77C,0.0475
22,G28C C61U,0.185
23,G28C U37A,0.229
24,G28C U37G,0

row,Variant,self-cleavage
1,G28U A71U,0.246
2,G28A C33A,0.107
3,G28C G74C,0.151
4,G28C G74U,0.0692
5,G28U C49G,0.116
6,G28A A71U,0.0292
7,G28A A71C,0.162
8,G28A U65G,0.0386
9,G28A U65A,0.0755
10,G28A G31U,0.133
11,G28A G31C,0
12,G28A G50C,0.0978
13,G28C G50C,0.0437
14,G28C A77U,0.107
15,G28C G68C,0.138
16,G28C G68U,0.0426
17,U27G C63A,1.07
18,U27G C63U,1.11
19,G28A G35U,0.0601
20,G28A C64U,0.117
21,G28A C64G,0.108
22,G28A C64A,0.121
